Target: T1, 32-N MB.v3
T1 construct: Self-assembled apoferritin nanocage (Multabody), plasmids co-transfected 3:1:1; monomeric IgG1 Fc chain at the C-terminus of C-ferritin, which dimerises in the particle; also called Multabody.v3; T-01 MBv2
Test: BLI, His-tagged FcγRIIa on Ni-NTA biosensors, Multabody in solution [8f]

B1: FcRIIa (receptor, human, UniProt P12318 34-217, looked up)
receptor chain: QAAAPPKAVLKLEPPWINVLQEDSVTLTCQGARSPESDSIQWFHNGNLIPTHTQPSYRFKANNNDSGEYTCQTGQTSLSDPVHLTVLSEWLVLQTPHLEFQEGETIMLRCHSWKDKPLVKVTFFQNGKSQKFSHLDPTFSIPQANHSHSGDYHCTGNIGYTLFSSKPVTITVQVPSMGSSSPMG
notes: His-tagged ligand loaded on Ni-NTA biosensors; also called FcγRIIa
Does B1 bind?
Result: no binding

Source: patent US20240317842A1 (HOSPITAL FOR SICK CHILDREN, published 2024)
